Experimental data published in patent US20130336983A1 (TRUSTEES OF DARTMOUTH COLLEGE, published 2013).

Biological target: the molecule itself
Assay: NMR spectroscopy of the 20-mer

Question: Does LHHILMHLTEKAQEVTRKYQ [20-mer representing residues 120-139 of S14 domain III] bind?
Answer: binds
